# Results reported in patent publication US20250236644A1, “De Novo Designed Stimulus-responsive Two-state Hinge Proteins” (University of Washington, priority 2024, published 2025).
# Assays:
# TAMRA-cs074B = experiment: Fluorescence polarization (FP) titration and kinetics, hinge vs TAMRA-cs074B; type: binding; details: Effector TAMRA-cs074B; method FP
# Experimental: (§1) All FP measurements were performed at 25° C. in 96-well plates (Corning 3686) using a Synergy Neo2™ plate reader and a 530/590 nm filter cube. The buffer for all FP measurements was 20 mM Tris-HCl, 100 mM NaCl, 0.05% v/v TWEEN20 at pH 8. Titrations were carried out in 96-well format, with 4 replicates per plate and 24 data points per titration (23 steps of two-fold serial dilution of hinges in the presence of TAMRA-labeled peptide at a constant concentration between 0.1 nM and 1 nM) with a final sample volume of 80 μl per well. Titration plates were incubated overnight at room temperature before measuring to ensure complete equilibration. The polarization signal S (as calculated by the Neo2™ software) was fitted to the equation
# (§2) where fAB is the fraction of peptide that is bound, Atot is the absolute hinge concentration, Btot is the absolute peptide concentration, S0 is the baseline polarization of free peptide, and S1 is the change in polarization upon complex formation.
# (§3) Fitting was performed using the scipy.optimize.curve_fit python function (53). Uncertainties for KD values are standard deviation errors calculated from the covariance matrix of the fits. In cases where the fitted KD was lower than the concentration of the labeled peptide Btot, we report the KD as KD<Btot.
# For FP kinetics experiments a 2× peptide solution and 8 different 2× hinge solutions at different concentrations were prepared separately. 40 μl of each hinge solution were mixed with 40 μl peptide solution using a multichannel pipet and the measurement was started immediately after mixing. Polarization signals S at each concentration were fitted individually to the equation
# where S0 is the amplitude, S1 is the polarization at equilibrium, kapp is the apparent rate constant, t is the time after start of the measurement, and t0 is the dead time between mixing and start of the measurement. For each hinge-peptide pair, the apparent rate constants for 8 different concentrations are fitted to the equation
# where koff and kon are observed off- and on rates and Atot is the absolute hinge concentration.
# cs074B = experiment: FRET titration and kinetics, labeled extended hinge vs peptide cs074B; type: binding; details: Effector cs074B; method FRET
# Experimental: (§4) AlexaFluor™ 555 C2 maleimide (donor) and AlexaFluor™ 647 C2 maleimide (acceptor) were purchased from ThermoFisherScientific. Stock solutions at −5 mM were prepared by dissolving 1 mg of each dye in 200 μl DMSO. Hinge variants containing two cysteines were expressed and purified as described above with the modification that 0.5 mM TCEP was used during lysis, IMAC and SEC, and that the buffer for initial SEC contained 20 mM sodium phosphate (PH 7.0) instead of Tris-HCl. After SEC, 500 μl hinge at a concentration of 50 μM was incubated with 500 μM of a single dye for controls or 250 μM each of two dyes. […]
# (§5) The buffer for all FRET measurements was 20 mM Tris-HCl, 100 mM NaCl, 0.05% v/v TWEEN®20 at pH 8. Fluorescence spectra were recorded at room temperature using a FluoroMax™ spectrometer in a 1 cm×1 cm cuvette at a sample volume of 3 ml. FRET titrations and kinetics measurements were performed at 25° C. in 96-well plates (Corning 3686) using a Synergy Neo2™ plate reader. […]
# (§6) Titrations were carried out in 96-well format, with 4 replicates per plate and 24 data points per titration (23 steps of two-fold serial dilution of effector (peptide or 3hb) in the presence of double-labeled hinge at a constant concentration of 2 nM) with a final sample volume of 80 μl per well. […] The raw fluorescence signal (donor emission upon acceptor excitation) was fitted to the equation […]
# 3hb05 = experiment: FRET titration, labeled extended hinge vs 3hb05; type: binding
# Experimental: as §4, §5, §6
# cs201B = experiment: FRET titration and kinetics, labeled extended hinge vs peptide cs201B; type: binding; details: FRET titration, 2 nM labeled hinge, peptide cs201B
# Experimental: AlexaFluor™ 555 C2 maleimide (donor) and AlexaFluor™ 647 C2 maleimide (acceptor) were purchased from ThermoFisherScientific. Stock solutions at −5 mM were prepared by dissolving 1 mg of each dye in 200 μl DMSO. Hinge variants containing two cysteines were expressed and purified as described above with the modification that 0.5 mM TCEP was used during lysis, IMAC and SEC, and that the buffer for initial SEC contained 20 mM sodium phosphate (PH 7.0) instead of Tris-HCl. After SEC, 500 μl hinge at a concentration of 50 μM was incubated with 500 μM of a single dye for controls or 250 μM each of two dyes. After 2 h incubation at room temperature, samples were purified by SEC using a buffer containing 20 mM Tris-HCl and 100 mM NaCl at pH 8.
# The buffer for all FRET measurements was 20 mM Tris-HCl, 100 mM NaCl, 0.05% v/v TWEEN®20 at pH 8. Fluorescence spectra were recorded at room temperature using a FluoroMax™ spectrometer in a 1 cm×1 cm cuvette at a sample volume of 3 ml. FRET titrations and kinetics measurements were performed at 25° C. in 96-well plates (Corning 3686) using a Synergy Neo2™ plate reader. Excitation wavelength was 520 nm and emission wavelength was 665 nm (except for donor-donor controls for which emission wavelength was 555 nm, see FIG. 13B right column).
# Titrations were carried out in 96-well format, with 4 replicates per plate and 24 data points per titration (23 steps of two-fold serial dilution of effector (peptide or 3hb) in the presence of double-labeled hinge at a constant concentration of 2 nM) with a final sample volume of 80 μl per well. […] The raw fluorescence signal (donor emission upon acceptor excitation) was fitted to the equation
# Fitting was performed using the scipy.optimize.curve_fit python function (53). Uncertainties for KD values are standard deviation errors calculated from the covariance matrix of the fits. […]
# For FRET kinetics experiments a 2× hinge solution and 8 different 2× effector solutions at different concentrations were prepared separately. […] Fluorescence signals S at each concentration were fitted individually to the equation […]
# cs221B = experiment: FRET titration and kinetics, labeled extended hinge vs peptide cs221B; type: binding; details: FRET titration, 2 nM labeled hinge, peptide cs221B
# Experimental: as §4, §5, §6
# TAMRA-cs269B = experiment: FP titration and kinetics, hinge vs TAMRA-cs269B; type: binding; details: Effector TAMRA-cs269B; method FP
# Experimental: as §1, §2
# as §3, with “KD<Btot. […]” for “KD<Btot.”
# [1] = system: original peptides fused to superfolder green fluorescent protein (sfGFP); experiment: SEC binding experiments with original peptides fused to sfGFP; details: FIG. 17C
# Experimental: Individual hinge and sfGFP-fused peptides or 3hb were diluted in 20 mM Tris pH 8, 100 mM NaCl and mixed at approximately 1:1 concentrations. 0.5-1 mL of the resulting samples were injected onto a Superdex™ 200 Increase 10/300 GL columns and the absorbance at 230 nm was used as a readout for binding. For sfGFP-fused peptides, 473 nm was also used as readout. Mixtures were at a total concentration of 2. μM or higher.
# Sequence of TAMRA-cs269B (as listed by the source): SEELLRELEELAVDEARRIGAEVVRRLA
# Sequence of cs221B (as listed by the source): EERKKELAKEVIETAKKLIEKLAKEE
# Sequence of cs201B (as listed by the source): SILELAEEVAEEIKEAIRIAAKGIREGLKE
# Sequence of cs074B (as listed by the source): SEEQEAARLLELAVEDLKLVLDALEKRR
# Sequence of 3hb05 (as listed by the source): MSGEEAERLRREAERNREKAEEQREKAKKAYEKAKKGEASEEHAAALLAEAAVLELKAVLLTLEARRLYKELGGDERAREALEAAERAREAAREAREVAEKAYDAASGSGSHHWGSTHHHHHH
off-target binding compared to the on-target interaction for cs074B (cs201B),off-target binding compared to the on-target interaction for cs074B (cs221B),SEC binding experiment with sfGFP-fused original peptide [1],Molecule,kon (TAMRA-cs074B) [M⁻¹ s⁻¹],kon (cs074B) [M⁻¹ s⁻¹],affinity compared with the original peptide cs074B (3hb05),kon (TAMRA-cs269B) [M⁻¹ s⁻¹]
three orders of magnitude weaker,two orders of magnitude weaker,,"cs074F: extended hinge cs074 for FRET labeling, SEQ ID NO:29 (protein) DEEVQEAVERAEELREEAEELIKKARKTGDPELLRKALEALECAVRAVEEAIKRNPDNDEAVETAVRLARELKKVAEELQERAKKTGDPELLKLALRALKVAVRAVKLAIKSNPDNEEAVKTAVRLARELLKVAEELKERAEKTGDPRLLLLAAEAIAWAIEAVFLAAKASENTEGALEAARAAVKLAEVAKRIAKLLQRDAKKEGDPELLKLALRALELAVRAVELAIKENPDNDEAVETAVRLARELKKVAEELQERAKKTGDPELLKLALRALEVAVRAVELAIKSNPDNEEAVETAKRLAEELRKVAELLEERACETGDPELQELAKRAKEVADRARELAKKSNPNNGSHHHHHH",100000,170000,similar,
,,higher-order peaks,"cs269: designed hinge protein, SEQ ID NO:14 (protein) MSGDEERVRELAERASREAERAVRSGSEESLEEALRNVEELIRKSDSEEARVRVAEAAVRAAAEAAARSGTVEAAAVAVIFTARVLQIVSSSEEAVVRVLAAAAAAAARVAVELGTEEALETALRFVELLVRLADSDEARQRVLRSASESARRSAEESGSERAREVAERFRERIERNQGSGSHHWGSTHHHHHH",,,,2500
